# T1: TEV-cleaved wild-type recombinant human galectin-10 (soluble, in Fab complexes, or as recombinant galectin-10 … (human, UniProt Q05315 1-142))
# T1 sequence: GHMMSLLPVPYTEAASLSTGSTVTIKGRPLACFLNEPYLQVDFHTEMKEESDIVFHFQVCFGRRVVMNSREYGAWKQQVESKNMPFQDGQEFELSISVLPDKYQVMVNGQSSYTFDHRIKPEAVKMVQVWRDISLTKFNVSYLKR
# T2: human galectin-10-His (recombinant human galectin-10 with TEV-cleavable N-terminal His-tag) (human)
# T2 construct: SEC-MALLS: dimer in solution; also called Gal10-His; humanGal10-His
# T2 chain: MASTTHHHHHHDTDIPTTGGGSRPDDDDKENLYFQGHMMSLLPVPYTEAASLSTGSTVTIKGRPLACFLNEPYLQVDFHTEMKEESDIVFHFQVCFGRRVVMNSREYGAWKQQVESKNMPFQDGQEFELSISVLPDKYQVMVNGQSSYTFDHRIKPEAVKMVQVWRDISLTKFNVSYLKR
# B1: 1D11 mouse IgG1 (antibody, V domains shown)
# VH: QVQLVESGGGLVQPGGSLRLSCAASGFTFDDYAMSWVRQAPGKGLEWVSGISWNGGSTYYAESMKGRFTISRDNAKNTLYLQMNSLKSEDTAVYYCAKDRNLGYRLGYPYDYWGQGTQVTVSS
# VL: QSVLTQPPSVSGSPGETVTISCAGTSSDVGYGNYVSWYQQLPGMAPRLLIYEVNKRASGITDRFSGSKSGNTASLTISGLQSEDEGDYYCASYRSSNNAVFGGGTHLTVL
# notes: VH on mouse IgG1 heavy chain constant domains (CH1-CH2-CH3), VL on mouse lambda light chain constant domain; also called 1D011; 1D11 mIgG1
# Experiments:
# [1] = target: T1, TEV-cleaved wild-type recombinant human …; test: cell-based or functional assay
# [2] = target: T2, human galectin-10-His (recombinant …); test: BLI tandem on galectin-10-His; isotype control as saturating antibody (10 ug/mL)
# Method in brief: (§1)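 Sensor-bound galectin-10-His was pre-incubated with an excess of one clone before competitor exposure at a suboptimal concentration; competition was scored from the nm shift, where no detectable binding denotes overlapping epitopes.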
# [3] = target: T2, human galectin-10-His (recombinant …); test: BLI tandem on galectin-10-His; competitor: saturating 4E08 mIgG1 (10 ug/mL)
# Method in brief: as §1
# [4] = target: T2, human galectin-10-His (recombinant …); test: ELISA binding (summary table), mouse IgG1
# [5] = target: T2, human galectin-10-His (recombinant …); test: BLI tandem on galectin-10-His; competitor: saturating 1D11 mIgG1 (10 ug/mL)
# Method in brief: as §1
# [6] = target: T2, human galectin-10-His (recombinant …); test: SPR Biacore T3000, mouse IgG1 captured by anti-mouse Fc, galectin-10-His as analyte
# Method in brief: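 Polyclonal anti-mouse Fc on a CM5 chip (8000 RU) captured each mouse IgG1 (1.5 μg/mL) to around 150 RU. Galectin-10-His was then injected as a 1:2 serial dilution from 5 μg/mL in HBS-EP pH7.4. After blank subtraction, kd/KD and Rmax came from a simultaneous ka/kd fit with mass transfer and local Rmax.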
# [7] = target: T2, human galectin-10-His (recombinant …); test: Biacore capture approach (summary table), mouse IgG1
# Experimental: The binding capacity of the mouse IgG1 antibodies to galectin-10 was analyzed on Biacore T3000. For this purpose, a capture approach was set up. A CM5 Chip was coated with polyclonal anti-mouse Fc at 8000 RU, then a fixed concentration of the mouse IgG1 antibody panel (1.5 μg/mL), diluted in HBS-EP pH7.4, was captured to reach a binding signal around 150 RU. Finally, a serial dilution of galectin-10-His (serial dilution, 1 over 2 from 5 μg/mL) diluted in HBS-EP pH7.4 was injected. Raw data were analyzed via BIA evaluation software with a blank subtraction (4-3). The kd/KD and Rmax of each mAb to galectin-10-His was determined using the Fit Kinetics simultaneous ka/kd/Binding with mass transfer/Local Rmax on BIA evaluation software.
# Throughout, for 100% Solubilization of CLC (Conc uM): time not given here.
binder,measurement,setting,value
B1,100% Solubilization of CLC (Conc uM),[1],7.86 µM
same,binding signal (nm),[2],1.18 nm
same,binding signal (nm),[3],0 nm
same,EC50,[4],0.1 nM
same,binding signal (nm),[5],0.06 nm
same,Kd,[6],1 nM
same,koff,[6],0.00529 s⁻¹
same,Kd,[7],1 nM
same,koff,[7],0.00529 s⁻¹

# — US20190367619A1 (ARGENX, published 2019)
